Test results reported in patent US20210347873A1 (SHANGHAI PHARMAEXPLORER, published 2021).

Columns and labels:
human APRIL protein [1] = biological target: T1, human APRIL protein (human, UniProt O75888 105-250, limits assumed); assay: ELISA, coated APRIL
T1 construct: Bought protein; also called recombinant APRIL protein
T1 sequence (looked up): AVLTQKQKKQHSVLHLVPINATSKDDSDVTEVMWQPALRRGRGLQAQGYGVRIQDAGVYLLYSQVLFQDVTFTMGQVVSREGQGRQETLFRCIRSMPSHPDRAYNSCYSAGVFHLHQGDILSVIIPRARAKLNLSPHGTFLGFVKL
Description: To test whether the BLyS antibody cross-reacted with human APRIL protein, APRIL protein (purchased from R & D Systems) was first diluted to a final concentration of 1.0 μg/mL with PBS, and then 50 μL of which per well was aliquoted into a 96-well ELISA plate, and the plate was subsequently sealed with plastic film and incubated at 4° C. overnight. On the next day the plate was rinsed four times with the plate washing buffer [PBS buffer containing 0.0500 (v/v) Tween20] and a blocking solution [PBS buffer containing 0.05 (v/v) Tween20 and 1 (w/w) BSA] was added, then the protein was blocked at 37° C. for 2 hours. The blocking solution was removed and 100 μL per well of the lead antibodies prepared in Embodiment 1 and 2 were added in. After incubation for 1 hour at 37° C., the plate was rinsed four times with the plate washing buffer [PBS buffer containing 0.05 (v/v) Tween20]. HRP-labeled (horseradish peroxidase) secondary antibody (purchased from Sigma) was added in and incubated at 37° C. for 1 hour. The plate was then rinsed four times with the plate washing buffer [PBS buffer containing 0.050 (v/v) Tween20]. […] A₄₅₀ₙₘ values were read via an ELISA plate reader (SpectraMax M5e purchased from Molecular Devices) and the results were shown in FIGS. 6A-6B and Table 11. […]

human APRIL protein [2] = biological target: T1, human APRIL protein; assay: ELISA, coated APRIL; antibody 13.3 nM
Procedure, shortened: (§1)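 Anti-BLyS antibodies were tested for cross-reactivity on human APRIL coated at 1.0 μg/mL in PBS overnight at 4 °C, blocked with PBS/0.05% Tween20/1% BSA at 37 °C for 2 h. Antibodies were incubated 1 h at 37 °C, then HRP secondary 1 h at 37 °C; TMB 5 min at RT, HCl stop, A450 read.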

human APRIL protein [3] = biological target: T1, human APRIL protein; assay: ELISA, coated APRIL; antibody 2.67 nM
Procedure, shortened: as §1

human APRIL protein [4] = biological target: T1, human APRIL protein; assay: ELISA, coated APRIL; antibody 66.7 nM
Procedure, shortened: as §1

human APRIL protein [5] = biological target: T1, human APRIL protein; assay: ELISA, coated APRIL; antibody 0.107 nM
Procedure, shortened: as §1

human APRIL protein [6] = biological target: T1, human APRIL protein; assay: ELISA, coated APRIL; antibody 0.534 nM
Procedure, shortened: as §1

human APRIL protein [7] = biological target: T1, human APRIL protein; assay: ELISA, coated APRIL; antibody 0.0213 nM
Procedure, shortened: as §1

human APRIL protein [8] = biological target: T1, human APRIL protein; assay: ELISA, coated APRIL; antibody 0.00427 nM
Procedure, shortened: as §1

human APRIL protein [9] = biological target: T1, human APRIL protein; assay: ELISA, coated APRIL; antibody 0 nM (blank)
Procedure, shortened: as §1

- binding result (human APRIL protein [1]): no binding (tested: 66.7 nM)
- OD450 nm (human APRIL protein [2]): 0.0898
- OD450 nm (human APRIL protein [3]): 0.0673
- OD450 nm (human APRIL protein [4]): 0.264
- OD450 nm (human APRIL protein [5]): 0.0588
- OD450 nm (human APRIL protein [6]): 0.058
- OD450 nm (human APRIL protein [7]): 0.0563
- OD450 nm (human APRIL protein [8]): 0.0553
- OD450 nm (human APRIL protein [9]): 0.053
B1: 67A2E1D10 (antibody, V domains shown)
VH: EVQLQQSGAELVKPGASVKLSCTASGFNIKNYYMHWVKQRTEEGLEWIGRIDPEDGETKYAPKFQAKATITADTSSNTAYLQLSSLTSEDTAVYFCARKGYYGNYGAWFAYWGQGTLVTVSA
VL: DIQMTQSPASLSVSVGETVTITCRASEDLYSNLAWYQQKQGKSPQLLVYAATFLADGVPSRFSGSGSGTQYSLKINSLQSEDFGNYYCQHFWGTPPTFGGGTKLEIK
notes: Mouse hybridoma antibody purified on Protein G
